B1: wild-type MTM1-B10 fusion protein [human] / wild-type MTMR12-GFP protein [human] (parent complex)
chain 1: MASASTSKYNSHSLENESIKRTSRDGVNRDLTEAVPRLPGETLITDKEVIYICPFNGPIKGRVYITNYRLYLRSLETDSSLILDVPLGVISRIEKMGGATSRGENSYGLDITCKDMRNLRFALKQEGHSRRDMFEILTRYAFPLAHSLPLFAFLNEEKFNVDGWTVYNPVEEYRRQGLPNHHWRITFINKCYELCDTYPALLVVPYRASDDDLRRVATFRSRNRIPVLSWIHPENKTVIVRCSQPLVGMSGKRNKDDEKYLDVIRETNKQISKLTIYDARPSVNAVANKATGGGYESDDAYHNAELFFLDIHNIHVMRESLKKVKDIVYPNVEESHWLSSLESTHWLEHIKLVLTGAIQVADKVSSGKSSVLVHCSDGWDRTAQLTSLAMLMLDSFYRSIEGFEILVQKEWISFGHKFASRIGHGDKNHTDADRSPIFLQFIDCVWQMSKQFPTAFEFNEQFLIIILDHLYSCRFGTFLFNCESARERQKVTERTVSLWSLINSNKEKFKNPFYTKEINRVLYPVASMRHLELWVNYYIRWNPRIKQQQPNPVEQRYMELLALRDEYIKRLEELQLANSAKLSDPPTSPSSPSQMMPHVQTHF
chain 2: MLGKGVVGGGGGTKAPKPSFVSYVRPEEIHTNEKEVTEKEVTLHLLPGEQLLCEASTVLKYVQEDSCQHGVYGRLVCTDFKIAFLGDDESALDNDETQFKNKVIGENDITLHCVDQIYGVFDEKKKTLFGQLKKYPEKLIIHCKDLRVFQFCLRYTKEEEVKRIVSGIIHHTQAPKLLKRLFLFSYATAAQNNTVTDPKNHTVMFDTLKDWCWELERTKGNMKYKAVSVNEGYKVCERLPAYFVVPTPLPEENVQRFQGHGIPIWCWSCHNGSALLKMSALPKEQDDGILQIQKSFLDGIYKTIHRPPYEIVKTEDLSSNFLSLQEIQTAYSKFKQLFLIDNSTEFWDTDIKWFSLLESSSWLDIIRRCLKKAIEITECMEAQNMNVLLLEENASDLCCLISSLVQLMMDPHCRTRIGFQSLIQKEWVMGGHCFLDRCNHLRQNDKEEVPVFLLFLDCVWQLVHQHPPAFEFTETYLTVLSDSLYIPIFSTFFFNSPHQKDTNMGREGQDTQSKPLNLLTVWDWSVQFEPKAQTLLKNPLYVEKPKLDKGQRKGMRFKHQRQLSLPLTQSKSSPKRGFFREETDHLIKNLLGKRISKLINSSDELQDNFREFYDSWHSKSTDYHGLLLPHIEGPEIKVWAQRYLRWIPEAQILGGGQVATLSKLLEMMEEVQSLQEKIDERHHSQQAPQAEAPCLLRNSARLSSLFPFALLQRHSSKPVLPTSGWKALGDEDDLAKREDEFVDLGDV

Variants of: B1
Assay: co-immunoprecipitation (anti-B10 IP, western blot quantification); overexpressed in Cos1 cells; IP with anti-B10 tag antibody; parent: 1; read off a plot

How did the response turn out when chain 1 R69C was run?
Its response is about 0.05 AU.

chain 1 C375S was tested. Which response did it give?
Its response is about 0.92 AU.

With chain 1 R421Q as the variant, how does the response read?
The response was about 0.92 AU.

chain 1 V49F was tested. Which response did it give?
Its response is about 0.05 AU.

For chain 1 R241C, which response is on record?
Its response is about 1 AU.

How did the response turn out when chain 1 P205L was run?
Its response is about 0.07 AU.

chain 1 R184G was tested. Which response did it give?
The response was about 0.05 AU.

Source: PMC3688503 (2013)
